Data on 1 molecule can be found in patent publication US20160289316A1 (STOWERS INSTITUTE FOR MEDICAL RESEARCH, published 2016).

The target of this assay is T1, LRP6 G171V (human, UniProt O75197 32-1384, limits assumed).
T1 construct: The parent protein is printed inconsistently (LRP6 in the legend, LRP5 in the text); also called Human HBM G171V mutation; LRP5, G171V
T1 sequence (looked up): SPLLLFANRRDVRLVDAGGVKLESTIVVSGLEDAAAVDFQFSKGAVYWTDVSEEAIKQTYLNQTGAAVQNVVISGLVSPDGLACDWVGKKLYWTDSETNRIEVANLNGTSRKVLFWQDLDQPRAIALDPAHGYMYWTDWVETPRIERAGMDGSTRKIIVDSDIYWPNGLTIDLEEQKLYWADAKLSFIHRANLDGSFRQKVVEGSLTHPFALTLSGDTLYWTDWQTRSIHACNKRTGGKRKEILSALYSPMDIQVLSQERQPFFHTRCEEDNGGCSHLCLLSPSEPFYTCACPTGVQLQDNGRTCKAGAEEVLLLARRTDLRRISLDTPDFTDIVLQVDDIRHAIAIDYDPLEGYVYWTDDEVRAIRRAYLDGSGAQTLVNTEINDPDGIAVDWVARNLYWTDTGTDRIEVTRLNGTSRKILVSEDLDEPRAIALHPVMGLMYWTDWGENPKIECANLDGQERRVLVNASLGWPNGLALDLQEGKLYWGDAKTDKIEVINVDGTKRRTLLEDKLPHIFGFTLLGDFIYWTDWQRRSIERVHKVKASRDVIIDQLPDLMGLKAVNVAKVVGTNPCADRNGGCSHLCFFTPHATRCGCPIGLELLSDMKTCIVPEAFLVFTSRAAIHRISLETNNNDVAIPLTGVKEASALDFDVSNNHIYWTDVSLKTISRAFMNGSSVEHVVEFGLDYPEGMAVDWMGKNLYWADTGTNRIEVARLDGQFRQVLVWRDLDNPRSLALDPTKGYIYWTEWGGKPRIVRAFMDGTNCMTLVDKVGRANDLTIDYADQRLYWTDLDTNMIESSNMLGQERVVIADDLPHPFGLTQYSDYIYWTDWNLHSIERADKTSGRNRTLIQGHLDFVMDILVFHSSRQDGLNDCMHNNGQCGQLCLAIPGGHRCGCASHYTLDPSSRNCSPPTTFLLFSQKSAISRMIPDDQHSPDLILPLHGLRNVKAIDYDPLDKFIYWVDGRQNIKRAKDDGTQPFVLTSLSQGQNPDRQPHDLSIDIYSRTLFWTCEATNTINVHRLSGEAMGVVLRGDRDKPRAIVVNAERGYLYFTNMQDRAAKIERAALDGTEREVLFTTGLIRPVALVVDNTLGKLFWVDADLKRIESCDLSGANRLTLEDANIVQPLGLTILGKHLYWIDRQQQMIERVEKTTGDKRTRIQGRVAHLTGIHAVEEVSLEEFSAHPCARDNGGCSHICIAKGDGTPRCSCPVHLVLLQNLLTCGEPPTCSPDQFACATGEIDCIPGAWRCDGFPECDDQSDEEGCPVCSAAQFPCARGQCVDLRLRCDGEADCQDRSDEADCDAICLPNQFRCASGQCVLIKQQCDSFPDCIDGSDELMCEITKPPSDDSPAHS
Briefly: immunoprecipitation, anti-Flag M2 affinity gel (FIG. 2H). The method, then: A […] dish of 293 cells was transfected with 10 ug of LRP5, LRP6, SOST or Wise, using Fugene 6 (Roche). pCS2+LRP5 contains the extracellular portion of the human sequence between EcoRI-Xbal. pCS2+SOST contain the whole reading frame and has been modified at the 3′ end to have a kozak sequence and Flag tag, Wise-Flag, and LRP6-IgG-FC are described in Itasaki et al. (2003). pCS2+ with an Ig-FC insert is the vector control. The supernatants were collected on day 1, day 2, and day 3. The supernatant was concentrated through an appropriate molecular weight Amicon ultra (Millipore) spin column. A protein concentration was taken on the concentrated supernatants, and 50 ug of each sample was used in each IP. Anti-Flag M2 affinity gel (Sigma) was used for the Wise and SOSTIPs.

B1: SOST-Flag (ligand, mouse, UniProt Q99P68 24-211, looked up)
chain: QGWQAFRNDATEVIPGLGEYPEPPPENNQTMNRAENGGRPPHHPYDAKDVSEYSCRELHYTRFLTDGPCRSAKPVTELVCSGQCGPARLLPNAIGRVKWWRPNGPDFRCIPDRYRAQRVQLLCPGGAAPRSRKVRLVASCKCKRLTRFHNQSELKDFGPETARPQKGRKPRPGARGAKANQAELENAY
notes: mature; This entry was not used because neither its species nor its tie to the assay construct is stated; also called pCS2+SOST; not shown: Flag tag at the 3' end of the reading frame
Consider B1, for which the binding result is on record as “no binding”.
